Legend:
[1] = molecular target: T1, human PDGF-BB (platelet derived growth factor B homodimer) (human, UniProt P01127); assay: SPR; Biacore T200, off-rate screen; antibody captured (~70 to 100 RU) by anti-human IgG amine-coupled to a CM5 chip; human PDGF-BB injected at a single 2.5 nM for 170 s, dissociation 300 s; HBS-EP+ N (10 mM HEPES, 500 mM NaCl, 3 mM EDTA, 0.05% Tween20, pH 7.4); 25 C; conditions: both partners purified
T1 construct: Platelet derived growth factor B, human, homodimer, bought from PeproTech; the printed catalogue number may stand for 100-14B; source: bought: PeproTech, Catalog 100-148
T1 sequence (P01127 82-190): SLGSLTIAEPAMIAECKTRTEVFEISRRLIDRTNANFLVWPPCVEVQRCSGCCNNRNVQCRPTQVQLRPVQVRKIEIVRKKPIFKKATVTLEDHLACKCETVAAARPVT

[2] = AC-SINS; self-association assay, as in Avery et al. [35]; score = smoothed max absorbance of the antibody sample minus that of the average blank (PBS); scores >=11 considered high; conditions: other: AC-SINS
[3] = molecular target: T1, human PDGF-BB (platelet derived growth …); assay: SPR; Biacore T200, full kinetics; antibody captured by anti-human IgG on a CM5 chip; human PDGF-BB at 20, 10, 5, 2.5 and 1.25 nM, 50 s injection; HBS-EP+ N; 25 C; 1:1 Langmuir fit; conditions: both partners purified

Row | Binder | koff [1] | AC-SINS Score [2] | Kd [3] | koff [3] | kon [3]
1 | R2-022 (antibody, V domains shown, as the VH of m20 (R2-001_HC); as the VL of m20 (R2-001_LC) with D96N (Kabat); only the variable regions are written; source: HEK293, transient, purified from conditioned medium (protein A, TMAE, HIC)) VH: EVQLLQSGGGLVKPGGSLRLSCAASGFTFSSYAMSWVRQAPGKGLEWVSYISDDGSLKYYADSVKGRFTISRDNSKNTLYLQMNSLRAEDTAVYYCARHPYWYGGQLDLWGQGTLVTVSS VL: SYVLTQPPSVSVAPGKTARITCSGDSLGSYFVHWYQQKPGQSPVLVIYDDSKRPSGIPERFSGSNSGNTATLTISGTQAMDEADYYCSAFTHNSNVFGGGTKLTVL | 0.000361 s⁻¹ |  |  |  | 
2 | R2-017 (antibody, V domains shown, as the VH of m20 (R2-001_HC) with D101Y; as the VL of m20 (R2-001_LC); only the variable regions are written; source: HEK293, transient, purified from conditioned medium (protein A, TMAE, HIC)) VH: EVQLLQSGGGLVKPGGSLRLSCAASGFTFSSYAMSWVRQAPGKGLEWVSYISDDGSLKYYADSVKGRFTISRDNSKNTLYLQMNSLRAEDTAVYYCARHPYWYGGQLYLWGQGTLVTVSS VL: SYVLTQPPSVSVAPGKTARITCSGDSLGSYFVHWYQQKPGQSPVLVIYDDSKRPSGIPERFSGSNSGNTATLTISGTQAMDEADYYCSAFTHNSDVFGGGTKLTVL | 0.000673 s⁻¹ |  |  |  | 
3 | R1-016 (antibody, V domains shown, only the variable regions are written; source: HEK293, transient, purified from conditioned medium (protein A, TMAE, HIC)) VH: EVQLLQSGGGLVKPGGSLRLSCAASGFTFSSYAMSWVRQAPGKGLEWVSYISDDGSLKYYADSVKGRFTISRDNSKNTLYLQMNSLRAEDTAVYYCARHPYWYGGQLDLWGQGTLVTVSS VL: SYELTQPPSVSVSPGQTASITCSGDSLGSYFVHWYQQKPGQSPVLVIYDDSKRPSGIPERFSGSNSGNTATLTISGTQAMDEADYYCSAFTHNSDVFGGGTKLTVL | 0.000289 s⁻¹ | 24 | 0.0743 ± 0.0137 nM | 0.000357 s⁻¹ | 4.88e+06 M⁻¹ s⁻¹
4 | R2-014 (antibody, V domains shown, as the VH of m20 (R2-001_HC) with D53Q; as the VL of m20 (R2-001_LC); only the variable regions are written; source: HEK293, transient, purified from conditioned medium (protein A, TMAE, HIC)) VH: EVQLLQSGGGLVKPGGSLRLSCAASGFTFSSYAMSWVRQAPGKGLEWVSYISDQGSLKYYADSVKGRFTISRDNSKNTLYLQMNSLRAEDTAVYYCARHPYWYGGQLDLWGQGTLVTVSS VL: SYVLTQPPSVSVAPGKTARITCSGDSLGSYFVHWYQQKPGQSPVLVIYDDSKRPSGIPERFSGSNSGNTATLTISGTQAMDEADYYCSAFTHNSDVFGGGTKLTVL | 0.000396 s⁻¹ |  |  |  | 
5 | R2-019 (antibody, V domains shown, as the VH of m20 (R2-001_HC); as the VL of m20 (R2-001_LC) with D50L (Kabat); only the variable regions are written; source: HEK293, transient, purified from conditioned medium (protein A, TMAE, HIC)) VH: EVQLLQSGGGLVKPGGSLRLSCAASGFTFSSYAMSWVRQAPGKGLEWVSYISDDGSLKYYADSVKGRFTISRDNSKNTLYLQMNSLRAEDTAVYYCARHPYWYGGQLDLWGQGTLVTVSS VL: SYVLTQPPSVSVAPGKTARITCSGDSLGSYFVHWYQQKPGQSPVLVIYLDSKRPSGIPERFSGSNSGNTATLTISGTQAMDEADYYCSAFTHNSDVFGGGTKLTVL | 0.000673 s⁻¹ |  |  |  | 
6 | R2-011 (antibody, V domains shown, as the VH of m20 (R2-001_HC) with Q100bK; as the VL of m20 (R2-001_LC); only the variable regions are written; source: HEK293, transient, purified from conditioned medium (protein A, TMAE, HIC)) VH: EVQLLQSGGGLVKPGGSLRLSCAASGFTFSSYAMSWVRQAPGKGLEWVSYISDDGSLKYYADSVKGRFTISRDNSKNTLYLQMNSLRAEDTAVYYCARHPYWYGGKLDLWGQGTLVTVSS VL: SYVLTQPPSVSVAPGKTARITCSGDSLGSYFVHWYQQKPGQSPVLVIYDDSKRPSGIPERFSGSNSGNTATLTISGTQAMDEADYYCSAFTHNSDVFGGGTKLTVL | 0.000414 s⁻¹ |  |  |  | 
7 | R2-020 (antibody, V domains shown, as the VH of m20 (R2-001_HC); as the VL of m20 (R2-001_LC) with D51N (Kabat); only the variable regions are written; source: HEK293, transient, purified from conditioned medium (protein A, TMAE, HIC)) VH: EVQLLQSGGGLVKPGGSLRLSCAASGFTFSSYAMSWVRQAPGKGLEWVSYISDDGSLKYYADSVKGRFTISRDNSKNTLYLQMNSLRAEDTAVYYCARHPYWYGGQLDLWGQGTLVTVSS VL: SYVLTQPPSVSVAPGKTARITCSGDSLGSYFVHWYQQKPGQSPVLVIYDNSKRPSGIPERFSGSNSGNTATLTISGTQAMDEADYYCSAFTHNSDVFGGGTKLTVL | 0.000386 s⁻¹ | 4 | 0.299 ± 0.00683 nM | 0.00061 s⁻¹ | 2.04e+06 M⁻¹ s⁻¹
8 | R2-015 (antibody, V domains shown, as the VH of m20 (R2-001_HC) with D61N; as the VL of m20 (R2-001_LC); only the variable regions are written; source: HEK293, transient, purified from conditioned medium (protein A, TMAE, HIC)) VH: EVQLLQSGGGLVKPGGSLRLSCAASGFTFSSYAMSWVRQAPGKGLEWVSYISDDGSLKYYANSVKGRFTISRDNSKNTLYLQMNSLRAEDTAVYYCARHPYWYGGQLDLWGQGTLVTVSS VL: SYVLTQPPSVSVAPGKTARITCSGDSLGSYFVHWYQQKPGQSPVLVIYDDSKRPSGIPERFSGSNSGNTATLTISGTQAMDEADYYCSAFTHNSDVFGGGTKLTVL | 0.000834 s⁻¹ |  |  |  | 

From article PMC7205207, “Modeling and mitigation of high-concentration antibody viscosity through structure-based computer-aided protein design” (PLoS ONE, 2020)
